The target in test [1] is T1, human CD3 (human, UniProt P07766 23-207; P04234 22-171; P09693 23-182).
T1 construct: whole, on cells; also called CD3 antigen; human CD3 complex
The experiment in a line: FACS, 10 µg/ml on Jurkat cells. The method, then: (§1) Binding of the bispecific single chain molecules with anti-CD3 part in N-terminal orientation to EpCAM and CD3 were confirmed by FACS analyses. For that purpose the EpCAM positive human gastric cancer cell line Kato III (ATCC HTB-103) was used.
(§2) Cells were cultured according to the recommendations of the supplier and a number of 200000 cells was incubated with 10 μg/ml of the construct in 50 μl PBS with 2% FCS (fetal calf serum). The binding of the construct was detected with an anti-His antibody (Penta-His Antibody, obtained from Qiagen, Hilden, FRG) at 2 μg/ml in PBS with 2% FCS. […] The samples were measured on a FACSscan (BD biosciences, Heidelberg, FRG).
In general terms: Flow cytometry measures light scatter and fluorescence of single cells or particles in a stream.

Test [2] concerns the target T2, Epithelial cell adhesion molecule (EpCAM) (human, UniProt P16422 24-314).
T2 construct: whole, on cells; also called 17-1A antigen; KSA
T2 sequence (looked up): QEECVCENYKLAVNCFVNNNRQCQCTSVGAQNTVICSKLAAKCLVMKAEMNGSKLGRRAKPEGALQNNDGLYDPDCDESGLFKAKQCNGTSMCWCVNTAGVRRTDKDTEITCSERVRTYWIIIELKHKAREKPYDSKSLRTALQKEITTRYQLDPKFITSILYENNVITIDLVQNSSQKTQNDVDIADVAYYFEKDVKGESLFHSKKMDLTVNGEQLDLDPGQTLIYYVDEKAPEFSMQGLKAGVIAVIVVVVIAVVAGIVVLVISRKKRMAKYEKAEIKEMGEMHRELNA
Nature of the test: FACS, 10 µg/ml on EpCAM positive Kato III cells. The method, then: as §1, §2

For test [3], the target named is T1, human CD3. Nature of the test: FACS, second experiment, crude supernatant on CD3-enriched PBMCs. The method, then:
(§3) In order to analyze the binding efficacy of the deimmunized constructs to CD3 and CD19 a FACS-based assay was performed. Initially, crude supernatants were tested for binding on CD3-enriched PBMCs or CD19-positive NALM-6 cells. Cells were incubated with non-diluted supernatants for 30 minutes at 8° C. Upon two wash steps the cells were labeled with an anti-His antibody (Qiagen) under the same conditions. After additional wash steps binding of the constructs was detected with a FITC-conjugated sheep anti-mouse antibody (Sigma). Cells were analyzed with a FACS Calibur cytometer (B&D). As controls supernatants of anti-CD19×anti-CD3 and GFP-transfected cells were included. […] The positive control, which was a non-deimmunized anti-CD19×anti-CD3 construct reached a MFI of around 60 showing that the deimmunized constructs comprising anti-CD3 (VH5/VL1) (SEQ ID NO.:190), anti-CD3 (VH5/VL2) (SEQ ID NO.:192), anti-CD3 (VH5/VL3) (SEQ ID NO.:194), anti-CD3 (VH7/VL1) (SEQ ID NO.:196), anti-CD3 (VH7/VL2) (SEQ ID NO.:198) and anti-CD3 (VH7/VL3) (SEQ ID NO.:200) bound CD3 with extremely high efficacy.

Test [4] addresses T3, CD19 (human, UniProt P15391 20-556).
T3 construct: whole, on cells; also called CD19 on NALM-6 cells
T3 sequence (looked up): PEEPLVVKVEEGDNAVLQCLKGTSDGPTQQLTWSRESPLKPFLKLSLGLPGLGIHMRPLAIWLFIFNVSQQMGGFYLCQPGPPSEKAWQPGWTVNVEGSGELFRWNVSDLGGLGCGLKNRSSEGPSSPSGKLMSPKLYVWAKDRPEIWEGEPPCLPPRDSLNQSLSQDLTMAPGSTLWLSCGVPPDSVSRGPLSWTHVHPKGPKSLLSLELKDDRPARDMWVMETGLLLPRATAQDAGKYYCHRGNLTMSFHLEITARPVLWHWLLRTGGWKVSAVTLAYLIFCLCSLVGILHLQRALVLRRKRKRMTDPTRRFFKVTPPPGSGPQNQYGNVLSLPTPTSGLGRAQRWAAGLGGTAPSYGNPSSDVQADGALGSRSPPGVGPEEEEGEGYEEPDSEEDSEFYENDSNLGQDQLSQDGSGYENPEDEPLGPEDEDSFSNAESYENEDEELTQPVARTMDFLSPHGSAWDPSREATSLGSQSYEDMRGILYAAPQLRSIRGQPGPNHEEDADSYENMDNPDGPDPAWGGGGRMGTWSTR
The experiment in a line: FACS, crude supernatant on CD19-positive NALM-6 cells; negative control MFI ca. 3. The method, then:
as §3
The FACS-based binding assay was also carried out for CD19. In this experiment CD19 and a secondary antibody was as a negative control. In this experiment, all assayed constructs achieved a MFI of at least 80 while the MFI of the negative control was ca. 3.

The target of test [5] is T1, human CD3. The experiment in a line: FACS on CD3-enriched PBMCs.

B1: deimmunized anti-CD3 (VH5/VL2)×3-1 (SEQ ID NO.:31) (bispecific antibody)
chain: DVQLVQSGAEVKKPGASVKVSCKASGYTFTRYTMHWVRQAPGQGLEWIGYINPSRGYTNYADSVKGRFTITTDKSTSTAYMELSSLRSEDTATYYCARYYDDHYCLDYWGQGTTVTVSSGEGTSTGSGGSGGSGGADDIVLTQSPATLSLSPGERATLSCRASQSVSYMNWYQQKPGKAPKRWIYDTSKVASGVPARFSGSGSGTDYSLTINSLEAEDAATYYCQQWSSNPLTFGGGTKVEIKSGGGGSEVQLLEQSGAELVKPGASVKISCKASGYAFTNYWLGWVKQRPGHGLEWIGDLFPGSGNTHYNERFRGKATLTADKSSSTAFMQLSSLTSEDSAVYFCARLRNWDEAMDYWGQGTTVTVSSGGGGSGGGGSGGGGSELVMTQSPSYLAASPGETITINCRASKSISKYLAWYQEKPGKTNKLLIYSGSTLQSGIPSRFSGSGSGTDFTLTISSLEPEDFAMYYCQQHNEYPYTFGGGTKLEIK
notes: Bispecific single chain, VH(CD3)-VL(CD3)-VH(EpCAM)-VL(EpCAM); detected by anti-His
On to B1, for which the binding result in test [1] and in test [2] was “binds” each time.

B2: deimmunized anti-CD3 (VH5/VL2)×5-10 (SEQ ID NO.:37) (bispecific antibody)
chain: DVQLVQSGAEVKKPGASVKVSCKASGYTFTRYTMHWVRQAPGQGLEWIGYINPSRGYTNYADSVKGRFTITTDKSTSTAYMELSSLRSEDTATYYCARYYDDHYCLDYWGQGTTVTVSSGEGTSTGSGGSGGSGGADDIVLTQSPATLSLSPGERATLSCRASQSVSYMNWYQQKPGKAPKRWIYDTSKVASGVPARFSGSGSGTDYSLTINSLEAEDAATYYCQQWSSNPLTFGGGTKVEIKSGGGGSEVQLLEQSGAELVRPGTSVKISCKASGYAFTNYWLGWVKQRPGHGLEWIGDIFPGSGNIHYNEKFKGKATLTADKSSSTAYMQLSSLTFEDSAVYFCARLRNWDEPMDYWGQGTTVTVSSGGGGSGGGGSGGGGSELVMTQSPSSLTVTAGEKVTMSCKSSQSLLNSGNQKNYLTWYQQKPGQPPKLLIYWASTRESGVPDRFTGSGSGTDFTLTISSVQAEDLAVYYCQNDYSYPLTFGAGTKLEIK
notes: Bispecific single chain, VH(CD3)-VL(CD3)-VH(EpCAM)-VL(EpCAM); expressed in CHO with a leader peptide; detected by anti-His
Consider B2, for which the binding result in test [1] and in test [2] was “binds” each time.

B3: deimmunized anti-CD3 (VH5/VL2)×4-7 (SEQ ID NO.:33) (bispecific antibody)
chain: DVQLVQSGAEVKKPGASVKVSCKASGYTFTRYTMHWVRQAPGQGLEWIGYINPSRGYTNYADSVKGRFTITTDKSTSTAYMELSSLRSEDTATYYCARYYDDHYCLDYWGQGTTVTVSSGEGTSTGSGGSGGSGGADDIVLTQSPATLSLSPGERATLSCRASQSVSYMNWYQQKPGKAPKRWIYDTSKVASGVPARFSGSGSGTDYSLTINSLEAEDAATYYCQQWSSNPLTFGGGTKVEIKSGGGGSEVQLLEQSGAELARPGASVKLSCKASGYTFTNYGLSWVKQRPGQVLEWIGEVYPRIGNAYYNEKFKGKATLTADKSSSTASMELRSLTSEDSAVYFCARRGSYDTNYDWYFDVWGQGTTVTVSSGGGGSGGGGSGGGGSELVMTQTPLSLPVSLGDQASISCRSSQSLVHSNGNTYLHWYLQKPGQSPKLLIYKVSNRFSGVPDRFSGSGSGTDFTLKISRVEAEDLGVYFCSQSTHVPYTFGGGTKLEIK
notes: Bispecific single chain, VH(CD3)-VL(CD3)-VH(EpCAM)-VL(EpCAM); detected by anti-His; also called anti-CD3 (VH5/VL2)x4-7
As for B3, the binding result in test [1] and in test [2] was “binds” in each case.

B4: anti-CD19×anti-CD3 (VH3/VL1) (SEQ ID NO.:184) (bispecific antibody)
chain: DIQLTQSPASLAVSLGQRATISCKASQSVDYDGDSYLNWYQQIPGQPPKLLIYDASNLVSGIPPRFSGSGSGTDFTLNIHPVEKVDAATYHCQQSTEDPWTFGGGTKLEIKGGGGSGGGGSGGGGSQVQLQQSGAELVRPGSSVKISCKASGYAFSSYWMNWVKQRPGQGLEWIGQIWPGDGDTNYNGKFKGKATLTADESSSTAYMQLSSLASEDSAVYFCARRETTTVGRYYYAMDYWGQGTTVTVSSGGGGSDVQLVQSGAEVKKPGASVKVSCKASGYTATRYTMHWVRQAPGQGLEWIGYINPSRGYTNYAQKLQGRVTMTTDTSTSTAYLQMNSLKTEDTAVYYCARYYDDHYCLDYWGQGTTVTVSSGEGTSTGSGGSGGSGGADDIQMTQSPSSLSASVGDRVTITCRASQSVSYMNWYQQKPGKAPKRWIYDTSKVASGVPARFSGSGSGTDYSLTINSLEAEDAATYYCQQWSSNPLTFGGGTKVEIK
notes: As m4: bispecific single chain, His-tagged; also called pEF anti-CD19×anti-CD3 (VH3/VL1)
As for B4, the results for the MFI in test [3] and in test [4] were ~6 MFI and ≥ 80 MFI, respectively. For the same molecule, the binding result in test [5] is “no binding (tested: non-diluted supernatant)”.

Source of the values: patent US20090022738A1 (MICROMET, published 2009).
